Laboratory results taken from patent publication US20260317434 (published 2026).

Experiments:
[1] = biological target: human IL1RAP Domain1+2 (aa21-234) (human, UniProt Q9NPH3); experiment: ELISA
[2] = biological target: T1, mouse IL1RAP (mouse, UniProt Q61730); experiment: ELISA
T1 chain: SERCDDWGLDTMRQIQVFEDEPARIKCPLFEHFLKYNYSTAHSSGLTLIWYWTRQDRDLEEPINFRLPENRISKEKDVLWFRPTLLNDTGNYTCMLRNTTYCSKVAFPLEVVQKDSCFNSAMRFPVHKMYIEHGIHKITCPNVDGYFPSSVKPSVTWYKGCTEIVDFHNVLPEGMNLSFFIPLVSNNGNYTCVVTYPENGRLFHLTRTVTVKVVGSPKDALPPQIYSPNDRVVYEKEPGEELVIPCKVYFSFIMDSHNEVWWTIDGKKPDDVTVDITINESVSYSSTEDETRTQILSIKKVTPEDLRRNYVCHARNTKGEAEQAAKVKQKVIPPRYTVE

[3] = biological target: T2, rat IL1RAP (rat, UniProt Q63621); experiment: ELISA
T2 chain: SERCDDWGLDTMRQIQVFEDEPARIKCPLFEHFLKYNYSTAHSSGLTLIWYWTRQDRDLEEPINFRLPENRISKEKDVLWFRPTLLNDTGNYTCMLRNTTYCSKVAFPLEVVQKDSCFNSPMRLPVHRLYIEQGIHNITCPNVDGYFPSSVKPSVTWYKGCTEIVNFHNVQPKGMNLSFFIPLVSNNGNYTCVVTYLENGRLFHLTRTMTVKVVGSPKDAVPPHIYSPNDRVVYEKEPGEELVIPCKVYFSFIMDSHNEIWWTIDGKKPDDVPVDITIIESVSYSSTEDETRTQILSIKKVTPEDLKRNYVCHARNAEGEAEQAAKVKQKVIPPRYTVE

[4] = biological target: human IL1RAP ectodomain (aa21-367) (human, UniProt Q9NPH3); experiment: BLI

Row | Binder | binding result [1] | binding result [2] | binding result [3] | Kd [4] [pM]
1 | 43F5 (antibody, V domains shown) VH: QSLEESGGRLVTPGTPLTLTCKASGFSLSNYWMSWVRQAPGKGLEWIGFITSSDNTYYASWAKGRFTISKASSTTVGLKMTSPTTEDTATYFCARDISGINSVVLWGQGTLVTVSS VL: DVVMTQTPASVSEPVGGTVTINCQASQSIDSYLSWYQQKPGQPPKFLIYGASNLASGVPSRFKGSRSGTEYTLTISDLECADAATYYCQCTDYSINYIGAFGGGTKVVVE | no binding | – | – | –
2 | 48A5 (antibody, V domains shown) VH: QEQLEESEGGLFKPTETLTLTCTVSGFSLSYDITWVRQAPGNGLEWIGTIDTSSNTYHATWAKSRSTITKNTNLNTVTLKMTSLTAADTATYFCARGGVHAYAYAPAAFDPWGPGTLVTISS VL: APVLTQTPSPVSAAVGGTVTISCQSSQSVYNDAYLAWYQQKPGQPPKLLIYLASTLASGVPSRFSGSGSGTQFTLTISGVQCEDAATYYCQGAYYSNDWYYVFGGGTEVVVK | no binding | no binding | no binding | –
3 | 3G5 (antibody, V domains shown) VH: EVQLVESGGVLVKPGGSLKLSCAASGFTFSDYAMSWVRQTPEKRLEWVATITDGGSYAYYTDDVKGRFTVSRDNARNNLFLQMSHLRSEDTGIYYCSRDRWPYYFDFWGRGTTLTVSS VL: DIQMTQSPTSLSVSVGETVTITCRISENIYSNLAWYQQKEGKSPQLLVYAATKLADGVPSRFSGSGSGTQYSLKINSLQSEDFGNYYCQHFWTTPRTFGGGTKVEIK | no binding | no binding | no binding | 285
